Experimental findings from patent publication US20180057604A1 (Genentech, published 2018) are described below.

B1: 6289 (antibody, V domains shown)
VH: QLQLQESGPGLVKPSETLSLTCTVSGGSISSSSYYWGWIRQPPGKGLEWIGSIYRSGSTYYNPSLRSRVTISVDTSKNQFSLKLSSVTAADTAVYYCVRVGHGISYFDLWGRGTLVTVSS
VL: EIVLTQSPATLSLSPGERATLSCRASQSVSSYLAWYQQKPGQAPRLLIYDASNRATGIPARFSGSGSGTDFTLTISSLEPEDFAVYYCQQSLTWPPRTFGGGTKVEIK
notes: anti-BACE1 IgG
B2: 6297 (antibody, V domains shown)
VH: B1 VH with S28P, S52N, R55Y, S67G, V98A, V100L, I104Y, S105N
VL: B1 VL with Y36F, S91V, L92Y, T93V
notes: anti-BACE1 IgG
B3: 6290 (antibody, V domains shown)
VH: B1 VH with S52M, R55Y, Y60W, R66K, V98A, H102L, I104V
VL: B1 VL with N53K, S91V, L92Y
notes: anti-BACE1 IgG
B4: 6293 (antibody, V domains shown)
VH: B1 VH with S52M, R55Y, Y60W, V98A, I104V
VL: B1 VL with N53K, S91V, L92Y
notes: anti-BACE1 IgG
B5: 6296 (antibody, V domains shown)
VH: B1 VH with S52N, R55Y, S67G, V98A, V100L, I104Y, S105N
VL: B1 VL with Y36F, S91V, L92Y, T93V
notes: anti-BACE1 IgG
B6: 6299 (antibody, V domains shown)
VH: QVQLVQSGAEVKKPGSSVKVSCKASGGTLSGYAISWVRQAPGQGLEWMGNIIPGFGTANYAQKSQGRVTITADESTSTAYMELSSLRSEDTAVYYCARSGGTRYGMLDVWGQGTMVTVSS
VL: EIVMTQSPATLSVSPGERATLSCRASQSVGSNLAWYQQKPGQAPRLLIYGASTRATGIPARFSGSGSGTEFTLTISSLQSEDFAVYYCQQSYLWPPRTFGGGTKVEIK
notes: anti-BACE1 IgG

Residue numbers refer to the chain shown, from its start.

The first assay has as its target T1, human BACE1 ECD.
T1 construct: analyte of the Octet assay (200 nM) and enzyme of the first short substrate assay; also called human BACE1 extracellular domain
Nature of the assay: Octet, pH 7.5.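 Note: antibodies captured on anti-human capture sensor tips, dissociation monitored in PBS with BSA, Kd obtained from kinetic fit to a one-to-one binding model.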
Protocol: (§1) Anti-BACE1 antibodies were loaded onto anti-human capture (AHC) sensors (tips) followed by 60 seconds baseline in assay buffer. […] Tips were transferred to assay buffer for 5 minutes, 30 minutes, or 120 minutes depending on the off-rate, for off-rate measurement. Assay buffer was either PBS+0.1% BSA, pH 7.5; or PBS+0.1% BSA, pH 5.0. Kinetics were analyzed using a 1:1 binding model.
For B1, the Kd (commonly the constant that tells how readily two partners part at equilibrium) was determined as 0.37 nM.
Consider B2, for which binding was characterised by a dissociation constant (Kd) of 0.4 nM.
On the same count and under the same terms, under B3 stands below 0.26 nM; under B4, below 0.28 nM.
B5 returned a Kd of 0.28 nM.
The same measure, in the same setting: then B6, with below 0.41 nM.

For a further assay, the target named is T2, murine BACE1 ECD.
T2 construct: analyte of the Octet assay (200 nM) and enzyme of the first short substrate assay
T2 sequence (single chain, as listed by the source limits assumed): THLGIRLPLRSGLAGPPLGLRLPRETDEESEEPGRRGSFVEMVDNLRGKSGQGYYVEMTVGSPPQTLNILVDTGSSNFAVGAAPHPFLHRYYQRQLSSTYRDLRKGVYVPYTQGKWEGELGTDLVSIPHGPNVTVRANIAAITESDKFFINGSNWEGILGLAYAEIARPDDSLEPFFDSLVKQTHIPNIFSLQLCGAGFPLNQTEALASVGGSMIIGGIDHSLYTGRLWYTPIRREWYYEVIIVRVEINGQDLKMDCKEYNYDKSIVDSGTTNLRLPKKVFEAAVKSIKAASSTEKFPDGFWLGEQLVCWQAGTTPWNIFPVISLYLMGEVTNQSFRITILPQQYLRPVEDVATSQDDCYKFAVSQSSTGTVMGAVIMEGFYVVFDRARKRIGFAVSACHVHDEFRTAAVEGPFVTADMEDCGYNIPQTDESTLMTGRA
Kind of assay: Octet, pH 7.5.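 Note: antibodies captured on anti-human capture sensor tips, dissociation monitored in PBS with BSA, Kd obtained from kinetic fit to a one-to-one binding model.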 Background: BLI is a label-free optical method that tracks binding on a fibre tip over time.
Protocol: as §1
The molecule B1 came in with a dissociation constant Kd of 0.28 nM.
For B2, the dissociation constant (Kd) was below 0.26 nM.
Same read-out and setting: then B3, with below 0.27 nM.
In the case of B4, the Kd was below 0.28 nM.
For the molecule B5, the Kd was below 0.24 nM.
On the same count and under the same terms, under B6 stands below 0.41 nM.

A further assay deals with T3, BACE1 in primary mouse cortical neurons (mouse, UniProt P56818 46-501). Nature of the assay: cell-based or functional assay.
T3 sequence (P56818 46-501): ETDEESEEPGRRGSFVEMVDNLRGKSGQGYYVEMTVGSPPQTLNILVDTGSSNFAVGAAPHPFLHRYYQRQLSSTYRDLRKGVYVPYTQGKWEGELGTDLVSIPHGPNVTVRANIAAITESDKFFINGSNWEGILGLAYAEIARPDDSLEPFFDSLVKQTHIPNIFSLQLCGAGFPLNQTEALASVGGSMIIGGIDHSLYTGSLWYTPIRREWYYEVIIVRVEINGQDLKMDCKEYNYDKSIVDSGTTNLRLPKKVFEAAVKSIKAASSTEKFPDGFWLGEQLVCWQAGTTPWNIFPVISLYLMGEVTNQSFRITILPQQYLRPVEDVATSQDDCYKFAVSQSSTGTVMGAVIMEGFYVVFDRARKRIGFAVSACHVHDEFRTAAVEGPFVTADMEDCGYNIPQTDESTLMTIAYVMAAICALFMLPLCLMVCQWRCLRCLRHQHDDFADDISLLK
For the molecule B1, the “IC50, Abeta x-40 in mouse cortical neurons” value is 5.21 nM and the “maximal % inhibition of Abeta x-40” value stood at 74%.
Taken in the same sequence, the figures for B2 were 3.89 nM and 63%.
Taken in the same sequence, the figures for B3 were 3.17 nM and 63%.
The like results for B4 were, in that order, 0.88 nM and 75%.
B5: the “IC50, Abeta x-40 in mouse cortical neurons” value is 7.92 nM and the “maximal % inhibition of Abeta x-40” value came to 62%.

The next assay has as its target T3, BACE1 in primary mouse cortical neurons. Kind of assay: cell-based or functional assay. This is another data set of the same source.
Turning to B6, the “IC50, Abeta x-40 in mouse cortical neurons” value came to 10.4 nM and the “maximal % inhibition of Abeta x-40” value was found to be 70%.

A further assay deals with T1, human BACE1 ECD. Kind of assay: Octet, pH 5.0.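 Note: antibodies captured on anti-human capture sensor tips, dissociation monitored in PBS with BSA buffer, kinetics fitted with a one-to-one binding model.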
T1 sequence (single chain, as listed by the source limits assumed): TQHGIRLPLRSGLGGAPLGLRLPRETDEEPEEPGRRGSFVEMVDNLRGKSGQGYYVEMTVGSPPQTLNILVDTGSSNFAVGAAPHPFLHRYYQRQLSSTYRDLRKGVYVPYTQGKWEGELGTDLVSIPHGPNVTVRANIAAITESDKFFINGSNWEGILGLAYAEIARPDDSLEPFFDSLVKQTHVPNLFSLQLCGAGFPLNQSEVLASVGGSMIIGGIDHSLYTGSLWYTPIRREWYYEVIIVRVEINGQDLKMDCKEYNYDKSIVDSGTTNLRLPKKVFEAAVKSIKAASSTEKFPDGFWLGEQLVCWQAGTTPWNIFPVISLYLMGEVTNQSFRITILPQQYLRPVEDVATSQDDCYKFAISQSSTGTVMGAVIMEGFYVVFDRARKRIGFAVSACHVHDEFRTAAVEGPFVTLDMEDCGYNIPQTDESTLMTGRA
Protocol: as §1
Molecule B1 had a Kd of 0.39 nM.
In turn, B2 came in with a Kd of 0.28 nM.
Take B3: the Kd was below 0.23 nM.
B4: the Kd was below 0.28 nM.
The same measure, in the same setting: then B5, with 0.2 nM; and B6, with below 0.28 nM.

Another assay concerns the target T2, murine BACE1 ECD. Nature of the assay: Octet, pH 5.0.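 Note: antibodies captured on anti-human capture sensor tips, dissociation monitored in PBS with BSA buffer, kinetics fitted with a one-to-one binding model.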
Protocol: as §1
In turn, B1 yielded a Kd of 0.38 nM.
Still for that read-out and setting: then B2, with 0.32 nM; and B3, with below 0.27 nM.
For B4, the Kd is below 0.28 nM.
Still for that read-out and setting: under B5 stands below 0.24 nM.
In the case of B6, the Kd was below 0.46 nM.

In a further assay the target is T4, human BACE1 (R&D Systems) (human, UniProt P56817).
T4 construct: recombinant, commercial (R&D Systems)
T4 sequence (P56817 22-457 limits assumed): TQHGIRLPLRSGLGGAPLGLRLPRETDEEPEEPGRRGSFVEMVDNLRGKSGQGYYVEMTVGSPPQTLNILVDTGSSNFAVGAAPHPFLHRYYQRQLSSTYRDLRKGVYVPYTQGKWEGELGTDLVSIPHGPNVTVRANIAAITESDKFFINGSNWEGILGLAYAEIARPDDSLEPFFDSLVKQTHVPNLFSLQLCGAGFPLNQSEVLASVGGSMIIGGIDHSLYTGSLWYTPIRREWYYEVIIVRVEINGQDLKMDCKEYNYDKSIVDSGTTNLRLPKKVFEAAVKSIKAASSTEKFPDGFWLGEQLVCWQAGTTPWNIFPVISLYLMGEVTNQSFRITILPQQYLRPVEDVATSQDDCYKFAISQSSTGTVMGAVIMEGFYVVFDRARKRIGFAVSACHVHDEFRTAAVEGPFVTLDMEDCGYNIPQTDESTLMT
Nature of the assay: SPR (Biacore). (In SPR one partner is held on a chip, and binding of the other changes the refractive index at the surface.)
Protocol: Binding affinities of certain anti-BACE1 IgGs were measured by surface plasmon resonance (SRP) using a BIAcore™-T100 instrument. […] Association rates (kon) and dissociation rates (koff) were calculated using a simple one-to-one Langmuir binding model (BIAcore Evaluation Software version 3.2). The equilibrium dissociation constant (KD) was calculated as the ratio koff/kon.
With B1, the Kd was determined as 7.37 nM.
On the same count and under the same terms, then B2, with 3.87 nM.
Same read-out and setting: then B3, with 3.19 nM.
Same read-out and setting: under B4 stands 8.26 nM; under B5, 3.29 nM.
The molecule B6 came in with a Kd of 5.82 nM.
